In PMC10786891, “Massively parallel profiling of RNA-targeting CRISPR-Cas13d”:

T1: EsCas13d, nuclease-dead (Eubacterium siraeum, UniProt B0MS50, R295A;H300A;R849A;H854A)
T1 sequence: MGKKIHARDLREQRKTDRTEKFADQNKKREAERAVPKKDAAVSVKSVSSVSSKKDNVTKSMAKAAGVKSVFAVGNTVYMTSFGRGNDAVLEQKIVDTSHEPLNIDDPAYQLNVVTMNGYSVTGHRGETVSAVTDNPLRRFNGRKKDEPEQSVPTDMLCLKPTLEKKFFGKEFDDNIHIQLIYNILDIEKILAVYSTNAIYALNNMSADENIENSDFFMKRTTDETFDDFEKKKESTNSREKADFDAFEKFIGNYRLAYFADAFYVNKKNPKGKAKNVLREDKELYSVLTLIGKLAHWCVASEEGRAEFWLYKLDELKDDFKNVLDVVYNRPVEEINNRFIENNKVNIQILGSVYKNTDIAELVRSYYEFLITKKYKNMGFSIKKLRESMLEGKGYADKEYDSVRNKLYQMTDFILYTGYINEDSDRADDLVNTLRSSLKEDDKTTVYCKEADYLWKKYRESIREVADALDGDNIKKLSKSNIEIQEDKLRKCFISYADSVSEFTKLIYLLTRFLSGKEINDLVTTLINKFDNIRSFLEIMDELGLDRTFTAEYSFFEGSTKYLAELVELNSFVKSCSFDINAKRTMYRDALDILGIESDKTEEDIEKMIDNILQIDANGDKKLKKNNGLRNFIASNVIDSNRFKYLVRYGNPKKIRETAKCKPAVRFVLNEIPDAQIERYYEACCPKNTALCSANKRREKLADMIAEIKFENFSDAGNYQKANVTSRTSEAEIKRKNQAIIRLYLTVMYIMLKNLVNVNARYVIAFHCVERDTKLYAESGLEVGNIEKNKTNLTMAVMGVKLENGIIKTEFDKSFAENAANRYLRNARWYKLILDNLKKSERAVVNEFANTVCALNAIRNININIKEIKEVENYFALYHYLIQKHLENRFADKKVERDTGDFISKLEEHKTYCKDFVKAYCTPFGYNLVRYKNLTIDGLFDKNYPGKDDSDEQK

B1: target 2 MT 5'PFS CUC 3'PFS AGU (mixed)
RNA 1: CACCCGUGCAAAAUUGCAGGGGUCUAAAACCUUCUCCAAAUUGUUUCAUCCU
RNA 2: GGGAAUGGAUCCACAUCUACGAAUUCCUCAGGAUGAAACAAUUUGGAGAAGAGUAGAUCGGAAGAGCACACGU
B2: target 2 MT 5'PFS UGC 3'PFS CUU (mixed)
RNA 1: CACCCGUGCAAAAUUGCAGGGGUCUAAAACCUUCUCCAAAUUGUUUCAUCCU
RNA 2: GGGAAUGGAUCCACAUCUACGAAUUCUGCAGGAUGAAACAAUUUGGAGAAGCUUAGAUCGGAAGAGCACACGU
B3: target 2 MT 5'PFS CUC 3'PFS AGA (mixed)
RNA 1: CACCCGUGCAAAAUUGCAGGGGUCUAAAACCUUCUCCAAAUUGUUUCAUCCU
RNA 2: GGGAAUGGAUCCACAUCUACGAAUUCCUCAGGAUGAAACAAUUUGGAGAAGAGAAGAUCGGAAGAGCACACGU
B4: target 2 MT 5'PFS CUC 3'PFS AGC (mixed)
RNA 1: CACCCGUGCAAAAUUGCAGGGGUCUAAAACCUUCUCCAAAUUGUUUCAUCCU
RNA 2: GGGAAUGGAUCCACAUCUACGAAUUCCUCAGGAUGAAACAAUUUGGAGAAGAGCAGAUCGGAAGAGCACACGU
B5: target 2 MT 5'PFS GUU 3'PFS UAU (mixed)
RNA 1: CACCCGUGCAAAAUUGCAGGGGUCUAAAACCUUCUCCAAAUUGUUUCAUCCU
RNA 2: GGGAAUGGAUCCACAUCUACGAAUUCGUUAGGAUGAAACAAUUUGGAGAAGUAUAGAUCGGAAGAGCACACGU
B6: target 1 insA 3' of 21,insU 3' of 6 (mixed)
RNA 1: CACCCGUGCAAAAAUGCAGGGGUCUAAAACUGAGCGGAUAACCUCUCUAUGG
RNA 2: GGGAAUGGAUCCACAUCUACGAAUUCGUACCAAUAGAGAGGUUAUCCUGCUCACCGAGAUCGGAAGAGCACACGU
B7: target 2 MT 5'PFS CUC 3'PFS AGG (mixed)
RNA 1: CACCCGUGCAAAAUUGCAGGGGUCUAAAACCUUCUCCAAAUUGUUUCAUCCU
RNA 2: GGGAAUGGAUCCACAUCUACGAAUUCCUCAGGAUGAAACAAUUUGGAGAAGAGGAGAUCGGAAGAGCACACGU
B8: target 2 MT 5'PFS UCU 3'PFS ACU (mixed)
RNA 1: CACCCGUGCAAAAUUGCAGGGGUCUAAAACCUUCUCCAAAUUGUUUCAUCCU
RNA 2: GGGAAUGGAUCCACAUCUACGAAUUCUCUAGGAUGAAACAAUUUGGAGAAGACUAGAUCGGAAGAGCACACGU
B9: target 2 MT 5'PFS UAU 3'PFS GGC (mixed)
RNA 1: CACCCGUGCAAAAUUGCAGGGGUCUAAAACCUUCUCCAAAUUGUUUCAUCCU
RNA 2: GGGAAUGGAUCCACAUCUACGAAUUCUAUAGGAUGAAACAAUUUGGAGAAGGGCAGAUCGGAAGAGCACACGU
B10: target 2 MT 5'PFS GGC 3'PFS ACU (mixed)
RNA 1: CACCCGUGCAAAAUUGCAGGGGUCUAAAACCUUCUCCAAAUUGUUUCAUCCU
RNA 2: GGGAAUGGAUCCACAUCUACGAAUUCGGCAGGAUGAAACAAUUUGGAGAAGACUAGAUCGGAAGAGCACACGU
B11: target 2 MT 5'PFS GUA 3'PFS GCC (mixed)
RNA 1: CACCCGUGCAAAAUUGCAGGGGUCUAAAACCUUCUCCAAAUUGUUUCAUCCU
RNA 2: GGGAAUGGAUCCACAUCUACGAAUUCGUAAGGAUGAAACAAUUUGGAGAAGGCCAGAUCGGAAGAGCACACGU
B12: target 2 MT 5'PFS GUA 3'PFS GCG (mixed)
RNA 1: CACCCGUGCAAAAUUGCAGGGGUCUAAAACCUUCUCCAAAUUGUUUCAUCCU
RNA 2: GGGAAUGGAUCCACAUCUACGAAUUCGUAAGGAUGAAACAAUUUGGAGAAGGCGAGAUCGGAAGAGCACACGU
B13: target 2 MT 5'PFS GGC 3'PFS ACG (mixed)
RNA 1: CACCCGUGCAAAAUUGCAGGGGUCUAAAACCUUCUCCAAAUUGUUUCAUCCU
RNA 2: GGGAAUGGAUCCACAUCUACGAAUUCGGCAGGAUGAAACAAUUUGGAGAAGACGAGAUCGGAAGAGCACACGU
B14: target 2 MT 5'PFS GGC 3'PFS ACA (mixed)
RNA 1: CACCCGUGCAAAAUUGCAGGGGUCUAAAACCUUCUCCAAAUUGUUUCAUCCU
RNA 2: GGGAAUGGAUCCACAUCUACGAAUUCGGCAGGAUGAAACAAUUUGGAGAAGACAAGAUCGGAAGAGCACACGU
B15: target 2 MT 5'PFS ACU 3'PFS UAU (mixed)
RNA 1: CACCCGUGCAAAAUUGCAGGGGUCUAAAACCUUCUCCAAAUUGUUUCAUCCU
RNA 2: GGGAAUGGAUCCACAUCUACGAAUUCACUAGGAUGAAACAAUUUGGAGAAGUAUAGAUCGGAAGAGCACACGU
B16: target 2 MT 5'PFS ACU 3'PFS UAC (mixed)
RNA 1: CACCCGUGCAAAAUUGCAGGGGUCUAAAACCUUCUCCAAAUUGUUUCAUCCU
RNA 2: GGGAAUGGAUCCACAUCUACGAAUUCACUAGGAUGAAACAAUUUGGAGAAGUACAGAUCGGAAGAGCACACGU
B17: target 1 C2U,A9U (mixed)
RNA 1: CACCCGUGCAAAAAUGCAGGGGUCUAAAACUGAGCGGAUAACCUCUCUAUGG
RNA 2: GGGAAUGGAUCCACAUCUACGAAUUCGUACCAUAGAGAGGUUUUCCGCUUACCGAGAUCGGAAGAGCACACGU
B18: target 2 MT 5'PFS ACU 3'PFS UAA (mixed)
RNA 1: CACCCGUGCAAAAUUGCAGGGGUCUAAAACCUUCUCCAAAUUGUUUCAUCCU
RNA 2: GGGAAUGGAUCCACAUCUACGAAUUCACUAGGAUGAAACAAUUUGGAGAAGUAAAGAUCGGAAGAGCACACGU
B19: target 2 MT 5'PFS ACU 3'PFS UAG (mixed)
RNA 1: CACCCGUGCAAAAUUGCAGGGGUCUAAAACCUUCUCCAAAUUGUUUCAUCCU
RNA 2: GGGAAUGGAUCCACAUCUACGAAUUCACUAGGAUGAAACAAUUUGGAGAAGUAGAGAUCGGAAGAGCACACGU
B20: target 2 MT 5'PFS AUC 3'PFS AGC (mixed)
RNA 1: CACCCGUGCAAAAUUGCAGGGGUCUAAAACCUUCUCCAAAUUGUUUCAUCCU
RNA 2: GGGAAUGGAUCCACAUCUACGAAUUCAUCAGGAUGAAACAAUUUGGAGAAGAGCAGAUCGGAAGAGCACACGU
B21: target 2 MT 5'PFS AUC 3'PFS AGA (mixed)
RNA 1: CACCCGUGCAAAAUUGCAGGGGUCUAAAACCUUCUCCAAAUUGUUUCAUCCU
RNA 2: GGGAAUGGAUCCACAUCUACGAAUUCAUCAGGAUGAAACAAUUUGGAGAAGAGAAGAUCGGAAGAGCACACGU
B22: target 2 MT 5'PFS AUG 3'PFS CUU (mixed)
RNA 1: CACCCGUGCAAAAUUGCAGGGGUCUAAAACCUUCUCCAAAUUGUUUCAUCCU
RNA 2: GGGAAUGGAUCCACAUCUACGAAUUCAUGAGGAUGAAACAAUUUGGAGAAGCUUAGAUCGGAAGAGCACACGU
B23: target 2 MT 5'PFS ACG 3'PFS AAC (mixed)
RNA 1: CACCCGUGCAAAAUUGCAGGGGUCUAAAACCUUCUCCAAAUUGUUUCAUCCU
RNA 2: GGGAAUGGAUCCACAUCUACGAAUUCACGAGGAUGAAACAAUUUGGAGAAGAACAGAUCGGAAGAGCACACGU
B24: target 2 MT 5'PFS ACG 3'PFS AAG (mixed)
RNA 1: CACCCGUGCAAAAUUGCAGGGGUCUAAAACCUUCUCCAAAUUGUUUCAUCCU
RNA 2: GGGAAUGGAUCCACAUCUACGAAUUCACGAGGAUGAAACAAUUUGGAGAAGAAGAGAUCGGAAGAGCACACGU
B25: target 2 MT 5'PFS AUG 3'PFS CUA (mixed)
RNA 1: CACCCGUGCAAAAUUGCAGGGGUCUAAAACCUUCUCCAAAUUGUUUCAUCCU
RNA 2: GGGAAUGGAUCCACAUCUACGAAUUCAUGAGGAUGAAACAAUUUGGAGAAGCUAAGAUCGGAAGAGCACACGU
B26: target 2 MT 5'PFS AUG 3'PFS CUC (mixed)
RNA 1: CACCCGUGCAAAAUUGCAGGGGUCUAAAACCUUCUCCAAAUUGUUUCAUCCU
RNA 2: GGGAAUGGAUCCACAUCUACGAAUUCAUGAGGAUGAAACAAUUUGGAGAAGCUCAGAUCGGAAGAGCACACGU
B27: target 2 MT 5'PFS UCG 3'PFS UGU (mixed)
RNA 1: CACCCGUGCAAAAUUGCAGGGGUCUAAAACCUUCUCCAAAUUGUUUCAUCCU
RNA 2: GGGAAUGGAUCCACAUCUACGAAUUCUCGAGGAUGAAACAAUUUGGAGAAGUGUAGAUCGGAAGAGCACACGU
B28: target 1 A9C,G15U (mixed)
RNA 1: CACCCGUGCAAAAAUGCAGGGGUCUAAAACUGAGCGGAUAACCUCUCUAUGG
RNA 2: GGGAAUGGAUCCACAUCUACGAAUUCGUACCAUAGAUAGGUUCUCCGCUCACCGAGAUCGGAAGAGCACACGU

Target: T1, EsCas13d, nuclease-dead
Experiment: crRNA (strand 1, pre-loaded); Mg2+; 40 mM Tris-HCl pH 7.5, 150 mM NaCl, 6 mM MgCl2, 1 mM DTT, 0.1% Tween-20, 0.2 mg/ml BSA; 25 C; 10 min per concentration, then washed
Settings: tags: His6-TwinStrep-SUMO cleaved; N-terminal SNAP kept (SNAP-Surface 488); label: 3' end held by stalled T7 RNA polymerase

Binder | Kd [nM]
B1 | 3.5 ± 0.8
B2 | ~110
B3 | 1.68 ± 0.16
B4 | 1.98 ± 0.25
B5 | 16.2 ± 2.7
B6 | 20.3 ± 1.5
B7 | 2.8 ± 0.5
B8 | 9.4 ± 1.8
B9 | 44 ± 12
B10 | 21.3 ± 2.5
B11 | 6.4 ± 1.5
B12 | 6.7 ± 0.6
B13 | 15.8 ± 1.1
B14 | 18 ± 4
B15 | 3.8 ± 0.6
B16 | 6.2 ± 0.9
B17 | 8.5 ± 0.7
B18 | 4 ± 0.9
B19 | 3.5 ± 0.4
B20 | 21 ± 8
B21 | ~80
B22 | 15.4 ± 2.9
B23 | 5.5 ± 1.2
B24 | 9.8 ± 1.8
B25 | 7.5 ± 0.9
B26 | 16 ± 5
B27 | ~120
B28 | ~70
